The target of test [1] is zTNF4 (UniProt Q9Y275). The test is described as follows: cell-based or functional assay.
The target in test [2] is human TACI on Jurkat TACI KZ142 Luciferase cells (human) (UniProt O14836). Briefly: cell-based or functional assay.

Here are results for three substances from US20050009149A1.

Several values for one entry are separate records, joined by “and”; a condition that tells them apart may be missing. Equal values may be shown once.

UniProt O14836, sequence (O14836 whole entry): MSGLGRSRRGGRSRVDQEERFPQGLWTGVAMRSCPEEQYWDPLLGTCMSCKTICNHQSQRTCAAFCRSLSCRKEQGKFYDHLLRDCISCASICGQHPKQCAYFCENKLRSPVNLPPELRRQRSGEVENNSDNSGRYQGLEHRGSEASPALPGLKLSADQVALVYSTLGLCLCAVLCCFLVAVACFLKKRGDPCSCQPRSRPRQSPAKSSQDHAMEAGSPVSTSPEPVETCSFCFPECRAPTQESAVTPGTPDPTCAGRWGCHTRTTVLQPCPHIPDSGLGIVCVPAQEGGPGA

Turning to “TACI-NC1 (fusion of an extracellular domain of TACI and the NC1 domain of human collagen X, with Glu-Glu tag)”, in test [1], the EC50, inhibition of zTNF4-stimulated human B-cell proliferation (3H-thymidine incorporation) came out at 0.057 nM; the fold effectiveness against TACI-Fc5, inhibition of zTNF4-induced B-cell proliferation worked out at 19 times; the fold efficiency at inhibiting zTNF4-stimulated proliferation of human B-cells turned out to be 10 fold.
“TACI-Fc fusion protein (from UniProt O14836 1-165)” showed an EC50, inhibition of zTNF4-stimulated human B-cell proliferation (3H-thymidine incorporation) in test [1] of 1.1 nM.
For the substance “zTNF4 (from UniProt Q9Y275 134-285) (ligand)”, the luciferase responsiveness of Jurkat TACI KZ142 Luciferase cells in test [2] was 18 fold and 10 fold.
